In assay [1] the target is SPARTA heterodimer (TIR-APAZ/short pAgo complex) from Crenotalea thermophila (Crenotalea thermophila). Kind of assay: cryo-EM structure.
For assay [2] the target is unchanged. Kind of assay: mass photometry.

“And” between values parts separate entries of the source, which are not always exact repeats. Equal values may be shown once.

Broadly, the stoichiometry N is the number of molecules, sites or subunits per partner or assembly. “SPARTA heterodimer (TIR-APAZ/short pAgo complex) from Crenotalea thermophila”: the stoichiometry N in assay [1] is 4; in assay [2] it was 2 and 4.

For the origin of these results see publication PMC10516056.
